According to patent US20160257732A1 (published 2016):
“And” between values parts separate entries of the source, which are not always exact repeats. Identical values can stand only once. Like-named read-outs stand apart in the source and are kept apart here.

Tests used:
Assay in all cases: cell-based or functional assay
[1] = molecular target: HA of swine-origin A/Minnesota/11/2010 H3N2 virus (influenza A virus)
[2] = molecular target: HA of A/Kawasaki/9/86 (H1N1) (influenza A virus)
[3] = molecular target: HA of A/New Jersey/8/76 (H1N1) (influenza A virus)
[4] = molecular target: HA of ca A/Vietnam/1203/04 (H5N1) (influenza A virus)
[5] = molecular target: HA of ca A/swine/Missouri/06 (H2N3) (influenza A virus)
[6] = molecular target: HA of ca A/Hong Kong/213/03 (H5N1) (influenza A virus)
[7] = molecular target: HA of ca A/Perth/16/09 (H3N2) (influenza A virus)
[8] = molecular target: T1, HA of ca A/chicken/Hong Kong/G9/97 (H9N2) (influenza A virus)
[9] = molecular target: HA of ca A/Sydney/5/97 (H3N2) (influenza A virus)
[10] = molecular target: HA of A/Victoria/3/75 (H3N2) (influenza A virus)
[11] = molecular target: HA of ca A/teal/Hong Kong/W312/97 (H6N1) (influenza A virus)
[12] = molecular target: HA of ca A/Panama/2007/99 (H3N2) (influenza A virus)
[13] = molecular target: HA of ca A/New Caledonia/20/99 (H1N1) (influenza A virus)
[14] = molecular target: HA of ca A/Beijing/262/95 (H1N1) (influenza A virus)
[15] = molecular target: HA of A/Fort Monmouth/1/47 (H1N1) (influenza A virus)
[16] = molecular target: HA of ca A/Texas/36/91 (H1N1) (influenza A virus)
[17] = molecular target: HA of A/Hong Kong/8/68 (H3N2) (influenza A virus)
[18] = molecular target: HA of A/Wyoming/03/03 (H3N2) (influenza A virus)
[19] = molecular target: HA of ca A/Netherlands/219/03 (H7N7) (influenza A virus)
[20] = molecular target: T2, HA of ca A/Brit. Columbia/CN-6/04 (H7N3-LP) (influenza A virus)
[21] = molecular target: HA of A/Wisconsin/67/05 (H3N2) (influenza A virus)
[22] = molecular target: HA of A/Kawasaki/9/86 (H1N1) (influenza A virus); remark: listed apart in the source
[23] = molecular target: HA of A/New Jersey/8/76 (H1N1) (influenza A virus); remark: listed apart in the source
[24] = molecular target: HA of ca A/Vietnam/1203/04 (H5N1) (influenza A virus); remark: listed apart in the source
[25] = molecular target: HA of A/Victoria/361/11 (H3N2) (influenza A virus)
[26] = molecular target: HA of ca A/swine/Missouri/06 (H2N3) (influenza A virus); remark: listed apart in the source
[27] = molecular target: HA of ca A/Japan/57 (H2N2) (influenza A virus)
[28] = molecular target: HA of ca A/Hong Kong/213/03 (H5N1) (influenza A virus); remark: listed apart in the source
[29] = molecular target: HA of ca A/Perth/16/09 (H3N2) (influenza A virus); remark: listed apart in the source
[30] = molecular target: T1, HA of ca A/chicken/Hong Kong/G9/97 …; remark: listed apart in the source
[31] = molecular target: HA of ca A/mallard/Alberta/89/85 (H6N2) (influenza A virus)
[32] = molecular target: HA of ca A/Sydney/5/97 (H3N2) (influenza A virus); remark: listed apart in the source
[33] = molecular target: HA of A/Victoria/3/75 (H3N2) (influenza A virus); remark: listed apart in the source
[34] = molecular target: HA of ca A/teal/Hong Kong/W312/97 (H6N1) (influenza A virus); remark: listed apart in the source
[35] = molecular target: HA of ca A/Panama/2007/99 (H3N2) (influenza A virus); remark: listed apart in the source
[36] = molecular target: HA of ca A/New Caledonia/20/99 (H1N1) (influenza A virus); remark: listed apart in the source
[37] = molecular target: HA of ca A/Beijing/262/95 (H1N1) (influenza A virus); remark: listed apart in the source
HA of virus H1-BS10 = molecular target: HA of virus H1-BS10
[38] = molecular target: HA of A/Fort Monmouth/1/47 (H1N1) (influenza A virus); remark: listed apart in the source
[39] = molecular target: HA of ca A/Texas/36/91 (H1N1) (influenza A virus); remark: listed apart in the source
[40] = molecular target: HA of A/Hong Kong/8/68 (H3N2) (influenza A virus); remark: listed apart in the source
[41] = molecular target: HA of ca A/Anhui/1/13 (H7N9) (influenza A virus)
[42] = molecular target: HA of ca A/Netherlands/219/03 (H7N7) (influenza A virus); remark: listed apart in the source
[43] = molecular target: T2, HA of ca A/Brit. Columbia/CN-6/04 …; remark: listed apart in the source
[44] = molecular target: HA of A/Wisconsin/67/05 (H3N2) (influenza A virus); remark: listed apart in the source

B1: Antibody 3 (antibody, V domains shown)
VH: QVQLQESGPGLVKPSQTLSLTCAISGDSVSSNNAVWNWIRQSPSRGLEWLGRTYYRSKWYNDYAESVKSRITVNPDTSKNQFSLHLKSVTPEDTAVFYCVRSGHITVFGVNVDAFDMWGQGTMVTVSS
VL: DIQMTQSPSSLSASVGDRVTITCRTSQSLSSYLHWYQQKPGKAPKLLIYAASSLQSGVPSRFSGSGSGTDFTLTISSLQPEDFATYYCQQSRTFGQGTKVEIK
[1]
  Neutralizing activity IC50, swine-origin A/Minnesota/11/2010: 2.2 µg/mL and 4.2 µg/mL
[2]
  Neutralization IC50, H1-Kaw86: 0.58 µg/mL
[3]
  Neutralization IC50, H1-NJ76: 1.41 µg/mL
[4]
  Neutralization IC50, H5-VM04: 2.11 µg/mL
[5]
  Neutralization IC50, H2-MO06: 2.27 µg/mL
[6]
  Neutralization IC50, H5-HK03: 4.64 µg/mL
[7]
  Neutralization IC50, H3-Perth09: 1.49 µg/mL
[8]
  Neutralization IC50, H9-HK97: 1.79 µg/mL
[9]
  Neutralization IC50, H3-Syd97: 3.75 µg/mL
[10]
  Neutralization IC50, H3-Vic75: 0.75 µg/mL
[11]
  Neutralization IC50, H6-HK97: 1.77 µg/mL
[12]
  Neutralization IC50, H3-Pa99: 17.7 µg/mL
[13]
  Neutralization IC50, H1-Ncal99: 0.79 µg/mL
[14]
  Neutralization IC50, H1-BJ95: 3.41 µg/mL
[15]
  Neutralization IC50, H1-FM47: 0.92 µg/mL
[16]
  Neutralization IC50, H1-TX91: 0.6 µg/mL
[17]
  Neutralization IC50, H3-HK68: 0.68 µg/mL
[18]
  Neutralization IC50, H3-Wy03: 0.63 µg/mL
[19]
  Neutralization IC50, H7-NLD03: 4.78 µg/mL
[20]
  Neutralization IC50, H7-BC04: 4.72 µg/mL
[21]
  Neutralization IC50, H3-WI05: 2.44 µg/mL
[22]
  Neutralization IC50, H1-Kaw86: 1.01 µg/mL
[23]
  Neutralization IC50, H1-NJ76: 0.57 µg/mL
[24]
  Neutralization IC50, H5-VM04: 1.19 µg/mL
[25]
  Neutralization IC50, H3-VC11: 3.4 µg/mL
[26]
  Neutralization IC50, H2-MO06: 1.09 µg/mL
[27]
  Neutralization IC50, H2-JP57: 0.46 µg/mL
[28]
  Neutralization IC50, H5-HK03: 0.71 µg/mL
[29]
  Neutralization IC50, H3-Perth09: 1.3 µg/mL
[30]
  Neutralization IC50, H9-HK97: 1.18 µg/mL
[31]
  Neutralization IC50, H6-AB85: 0.69 µg/mL
[32]
  Neutralization IC50, H3-Syd97: 6.5 µg/mL
[33]
  Neutralization IC50, H3-Vic75: 1.12 µg/mL
[34]
  Neutralization IC50, H6-HK97: 0.63 µg/mL
[35]
  Neutralization IC50, H3-Pa99: 9 µg/mL
[36]
  Neutralization IC50, H1-Ncal99: 1.16 µg/mL
[37]
  Neutralization IC50, H1-BJ95: 2.98 µg/mL
HA of virus H1-BS10
  Neutralization IC50, H1-BS10: 2.16 µg/mL
[38]
  Neutralization IC50, H1-FM47: 1.04 µg/mL
[39]
  Neutralization IC50, H1-TX91: 0.92 µg/mL
[40]
  Neutralization IC50, H3-HK68: 1.37 µg/mL
[41]
  Neutralization IC50, H7-ANU13: 4.26 µg/mL
[42]
  Neutralization IC50, H7-NLD03: 4.74 µg/mL
[43]
  Neutralization IC50, H7-BC04: 2.95 µg/mL
[44]
  Neutralization IC50, H3-WI05: 2.62 µg/mL

B2: Antibody 12 (antibody, V domains shown)
VH: QVQLQQSGPGLVKPSQTLSLTCAISGDSVSSYNAVWNWIRQSPSRGLEWLGRTYYRSGWYNDYAESVKSRITINPDTSKNQFSLQLNSVTPEDTAVYYCARSGHITVFGVNVDAFDMWGQGTMVTVSS
VL: DIQMTQSPSSLSASVGDRVTITCRTSQSLSSYTHWYQQKPGKAPKLLIYAASSRGSGVPSRFSGSGSGTDFTLTISSLQPEDFATYYCQQSRTFGQGTKVEIK
[1]
  Neutralizing activity IC50, swine-origin A/Minnesota/11/2010: 1.1 µg/mL and 1.2 µg/mL
[22]
  Neutralization IC50, H1-Kaw86: 0.28 µg/mL
[23]
  Neutralization IC50, H1-NJ76: 0.12 µg/mL
[24]
  Neutralization IC50, H5-VM04: 0.31 µg/mL
[25]
  Neutralization IC50, H3-VC11: 0.83 µg/mL
[26]
  Neutralization IC50, H2-MO06: 0.53 µg/mL
[27]
  Neutralization IC50, H2-JP57: 0.35 µg/mL
[28]
  Neutralization IC50, H5-HK03: 0.17 µg/mL
[29]
  Neutralization IC50, H3-Perth09: 0.25 µg/mL
[30]
  Neutralization IC50, H9-HK97: 0.31 µg/mL
[31]
  Neutralization IC50, H6-AB85: 0.32 µg/mL
[32]
  Neutralization IC50, H3-Syd97: 1.56 µg/mL
[33]
  Neutralization IC50, H3-Vic75: 0.32 µg/mL
[34]
  Neutralization IC50, H6-HK97: 0.45 µg/mL
[36]
  Neutralization IC50, H1-Ncal99: 0.61 µg/mL
[37]
  Neutralization IC50, H1-BJ95: 1.31 µg/mL
HA of virus H1-BS10
  Neutralization IC50, H1-BS10: 1.25 µg/mL
[38]
  Neutralization IC50, H1-FM47: 0.28 µg/mL
[39]
  Neutralization IC50, H1-TX91: 0.12 µg/mL
[40]
  Neutralization IC50, H3-HK68: 0.42 µg/mL
[41]
  Neutralization IC50, H7-ANU13: 2.56 µg/mL
[42]
  Neutralization IC50, H7-NLD03: 0.83 µg/mL
[43]
  Neutralization IC50, H7-BC04: 0.78 µg/mL

B3: Antibody 14 (antibody, V domains shown)
VH: QVQLQQSGPGLVKPSQTLSLTCAISGDSVSSNNAVWNWIRQSPSRGLEWLGRTYYRSKWYNDYAESVKSRITINPDTSKNQFSLQLNSVTPEDTAVYYCARSGHITVFGVNVDAFDMWGQGTTVTVSS
VL: DIQMTQSPSSLSASVGDRVTITCRTSQSLSSYTHWYQQKPGKAPKLLIYAASSRLSGVPSRFSGSGSGTDFTLTISSLQPEDFATYYCQQSRTFGQGTKVEIK
[1]
  Neutralizing activity IC50, swine-origin A/Minnesota/11/2010: 1.4 µg/mL and 2.3 µg/mL
[22]
  Neutralization IC50, H1-Kaw86: 0.35 µg/mL
[23]
  Neutralization IC50, H1-NJ76: 0.11 µg/mL
[24]
  Neutralization IC50, H5-VM04: 0.33 µg/mL
[25]
  Neutralization IC50, H3-VC11: 1.15 µg/mL
[26]
  Neutralization IC50, H2-MO06: 0.65 µg/mL
[27]
  Neutralization IC50, H2-JP57: 0.67 µg/mL
[28]
  Neutralization IC50, H5-HK03: 0.21 µg/mL
[29]
  Neutralization IC50, H3-Perth09: 0.47 µg/mL
[30]
  Neutralization IC50, H9-HK97: 0.44 µg/mL
[31]
  Neutralization IC50, H6-AB85: 0.26 µg/mL
[32]
  Neutralization IC50, H3-Syd97: 1.82 µg/mL
[33]
  Neutralization IC50, H3-Vic75: 0.44 µg/mL
[34]
  Neutralization IC50, H6-HK97: 0.26 µg/mL
[35]
  Neutralization IC50, H3-Pa99: 4.36 µg/mL
[36]
  Neutralization IC50, H1-Ncal99: 0.67 µg/mL
[37]
  Neutralization IC50, H1-BJ95: 2.09 µg/mL
HA of virus H1-BS10
  Neutralization IC50, H1-BS10: 1.93 µg/mL
[38]
  Neutralization IC50, H1-FM47: 0.44 µg/mL
[39]
  Neutralization IC50, H1-TX91: 0.09 µg/mL
[40]
  Neutralization IC50, H3-HK68: 0.65 µg/mL
[41]
  Neutralization IC50, H7-ANU13: 2.12 µg/mL
[42]
  Neutralization IC50, H7-NLD03: 1.16 µg/mL
[43]
  Neutralization IC50, H7-BC04: 0.86 µg/mL
[44]
  Neutralization IC50, H3-WI05: 1.19 µg/mL
